Substitutions are numbered along the chain they refer to. In names and notes the source's numbering stands.
T1: human S100A9 protein of Uniprot accession no. P06702 (recombinant, wild type) (human, UniProt P06702 2-114)
T1 construct: Recombinant; also called recS100A9; S100A9 wt
T1 sequence: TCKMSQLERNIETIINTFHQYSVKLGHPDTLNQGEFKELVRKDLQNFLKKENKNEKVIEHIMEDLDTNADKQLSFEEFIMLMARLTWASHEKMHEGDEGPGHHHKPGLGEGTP

B1: S100A9 (N69A+E78A), mutant of human S100A9 having a double Asn69→Ala and Glu78→Ala substitution (other)
chain: T1 sequence with N68A, E77A
B2: S100A9 (N69A), mutant of human S100A9 having a single Asn69→Ala substitution (other)
chain: T1 sequence with N68A
B3: S100A9 (E78A), mutant of human S100A9 having a single Glu78→Ala substitution (other)
chain: T1 sequence with E77A
B4: wild type human S100A12 protein (recombinant), single chain (other)
chain: TKLEEHLEGIVNIFHQYSVRKGHFDTLSKGELKQLLTKELANTIKNIKDKAVIDEIFQGLDANQDEQVDFQEFISLVAIALKAAHYHTHKE
notes: also called recS100A12 wt; wtS100A12
B5: human S100A8 protein of Uniprot accession no. P05109 (recombinant) (other)
chain: LTELEKALNSIIDVYHKYSLIKGNFHAVYRDDLKKLLETECPQYIRKKGADVWFKELDINTDGAVNFQEFLILVIKMGVAAHKKSHEESHKE
notes: Recombinant; also called recS100A8
B6: recS100A8/S100A9 wt heterodimer (other)
chain 1: B5 chain
chain 2: T1 sequence
notes: This heterodimer is the unit that joins with a second one to form the (S100A8/S100A9)2 tetramer when calcium is present; also called recS100A8/S100A9 wt complexes; wt S100A8/S100A9
B7: recS100A8/S100A9(N69A+E78A) mutant heterodimer (other)
chain 1: B5 chain
chain 2: T1 sequence with N68A, E77A
notes: Heterodimer tested for association with itself into a tetramer
B8: recS100A8/S100A9(N69A) mutant heterodimer (other)
chain 1: B5 chain
chain 2: T1 sequence with N68A
notes: Heterodimer tested for association with itself into a tetramer; also called recS100A8/S100A9(N69A) mutant complexes
B9: recS100A8/S100A9(E78A) mutant heterodimer (other)
chain 1: B5 chain
chain 2: T1 sequence with E77A
notes: as for B7

Legend:
[1] = molecular target: B5; test: ESI-MS, native conditions
[2] = molecular target: B5; test: glycerol density gradient centrifugation with EGTA, SDS-PAGE of fractions
Procedure: (§1) FIG. 7: Density gradient centrifugation of S100A8/S100A9 proteins. wt and mutant recS100A8/S100A9 complexes were loaded on a glycerol gradient in the presence of either 1 mM EGTA or 100 μM Ca2+. After centrifugation, successive fractions of the gradients were analyzed by SDS-PAGE. […] Addition of calcium induced a marked shift for recS100A8/S100A9 wt to higher glycerol densities, whereas for the mutant complexes recS100A8/S100A9(N69A) and recS100A8/S100A9(E78A) no shift was observed.

[3] = molecular target: the molecule itself; test: glycerol centrifugation with EGTA, Bradford assay of fractions (homodimer)
Procedure: FIG. 8: Glycerol centrifugation of S100A12 proteins. Wild type (wt) and mutant recS100A12 complexes were loaded on a 15% glycerol solution in the presence of either EGTA or Ca²⁺ or Zn²⁺ or Ca²⁺/Zn²⁺. Buffer conditions were 20 mM HEPES, 140 mM NaCl, pH 7.4. After centrifugation, successive fractions of the gradients were analyzed by the colorimetric assay Bradford. […] Addition of calcium or zinc alone induced no shift for wtS100A12 to higher glycerol fractions. Addition of calcium plus zinc induced a marked shift for wtS100A12 to higher glycerol fractions, whereas for the mutant complex recS100A12(E73A) no shift was observed. FIG. 8A: Protein concentrations of collected fractions determined by Bradford assay. Sample A: S100A12 wild type+2 mM EGTA, sample B S100A12 wild type+5 mM CaCl₂, sample C: S100A12 wild type+1 mM Zn, sample D S100A12 wild type+200 μM Zn, sample E: S100A12 wild type+5 mM CaCl₂+200 μM Zn, sample F: S100A12 wild type+2.5 mM CaCl₂+100 μM Zn FIG. 8B: Summary of collected and analysed fractions of wtS100A12 (see FIG. 8A) in the presence or absence of bivalent cations as indicated in the figure. FIG. 8C Summary of collected and analysed fractions of wtS100A12 and recS100A12E73A mutant in the presence (5 mM CaCl₂+200 μM Zn, 2.5 mM CaCl₂+100 μM Zn) or absence (2 mM EGTA) of bivalent cations as indicated in the figure.

[4] = molecular target: T1, human S100A9 protein of Uniprot …; test: MALDI-MS, native conditions, without calcium
Text: (§2) FIG. 5: MALDI mass spectra in the absence and presence of calcium under native solvent conditions. (a) MALDI mass spectra of recS100A8/S100A9 wt complexes in the absence (left) and presence (right) of calcium using 2,6-dihydroxy-acetophenone as matrix. The mass spectra between m/z 20,000 and 100,000 together with an inset between m/z 46,000 and 50,000 are shown. T⁺, singly charged; T²⁺, doubly charged; T³⁺, triply charged tetramer. (b) MALDI mass spectra of recS100A8/S100A9(N69A) mutant complexes in the absence (left) and presence (right) of calcium.
S100A8 and S100A9 exist as heterodimers in the absence of calcium, and these heterodimeric complexes associate to (S100A8/S100A9)₂ tetramers upon calcium-binding. […] In the absence of calcium, samples show intense signals of singly charged heterodimers. […] Other prominent signals are detected at molecular masses of around 24 kDa and 16 kDa, representing doubly charged (T2+) or triply charged (T3+) tetramers in accordance with results reported earlier for the native proteins purified from human granulocytes. The number of Ca2+ bound to the tetramers was calculated from the difference between the observed masses of the tetramers and the sum of the calculated theoretical molecular masses of the monomeric components.

[5] = molecular target: the molecule itself; test: glycerol density gradient centrifugation with calcium, SDS-PAGE of fractions (heterodimer to heterodimer)
Procedure: as §1

[6] = molecular target: the molecule itself; test: MALDI-MS, native conditions, with calcium (heterodimer to heterodimer)
Text: as §2

Binder: B1
- binding result [1]: binds

Binder: B2
- binding result [2]: binds

Binder: B3
- binding result [2]: binds

Binder: B4
- binding result [3]: binds

Binder: B5
- binding result [4]: binds

Binder: B6
- binding result [5]: binds

Binder: B7
- binding result [6]: no binding

Binder: B8
- binding result [6]: no binding

Binder: B9
- binding result [6]: no binding

Reference: US20190185530A1 (WESTFAELISCHE WILHELMS UNIVERSITAET MUENSTER, published 2019)
